Where two headings read alike, the source gives them in different places.

Results on one molecule are retold here after article PMC4296922 (ACS Applied Materials & Interfaces, 2014).

In assay [1] the target is T1, aerolysin pore (activated aerolysin in a planar lipid bilayer) (UniProt P09167 24-445). As to the kind of experiment: single-channel nanopore current recording.
The target in assay [2] is T1, aerolysin pore (activated aerolysin in …). As to the kind of experiment: single-channel nanopore current recording. The source holds these as a separate data set.

T1 sequence (P09167 24-445): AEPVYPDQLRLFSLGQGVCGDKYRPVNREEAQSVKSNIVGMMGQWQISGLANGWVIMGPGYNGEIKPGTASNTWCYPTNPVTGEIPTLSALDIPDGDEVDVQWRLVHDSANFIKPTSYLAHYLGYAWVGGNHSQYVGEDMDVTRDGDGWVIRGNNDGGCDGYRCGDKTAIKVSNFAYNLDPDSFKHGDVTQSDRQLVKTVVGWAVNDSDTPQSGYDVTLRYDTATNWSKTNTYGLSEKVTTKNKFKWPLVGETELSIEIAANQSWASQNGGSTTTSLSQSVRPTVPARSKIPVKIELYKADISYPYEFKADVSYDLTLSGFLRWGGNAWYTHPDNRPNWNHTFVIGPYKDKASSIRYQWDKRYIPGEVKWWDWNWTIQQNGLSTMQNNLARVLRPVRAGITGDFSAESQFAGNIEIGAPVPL

B1: synthetic peptide Sb2(76-93)s (peptide)
peptide: QFETSAAKLKRKYWWKNL
Broadly, the kon is the rate constant with which the complex forms. A lower kon goes with slow association. Regarding B1, the on-rate (kon) is 8.7e+06 M⁻¹ s⁻¹ in assay [1] and 8.1e+07 M⁻¹ s⁻¹ in assay [2].
